Data taken from patent US7067484 (Genentech, dated 2006).

Molecular target: CD4-IgG (human, UniProt P01730 26-205)
Assay: immunoaffinity chromatography of BT20 conditioned medium on CD4-IgG-Protein A precolumn, SDS-PAGE with silver staining
Protocol: BT20 cells were grown to 80% confluence in 150 mm plates, harvested by 5 mM EDTA in PBS, and seeded into […] roller bottles with growth medium. After 1 week of growth the cells were nearly confluent. The growth medium was removed, the cells washed with PBS, and serum-free growth medium was added. After 5 days, conditioned medium was harvested (12 liters from 72 roller bottles), centrifuged, sterile filtered, concentrated in a 12 kD molecular weight cutoff Amicon filter, and stored at −70° C.
200 ml of BT20 conditioned media, concentrated as described above from 12 liters and frozen, was thawed, centrifuged at 17,000 rpm in a Sorvall SS34 rotor, and filtered through a 0.45 µm filter to clarify the solution. The 200 ml was pumped through a 2.0 ml CD4-IgG—Protein A (CD4-IgG covalently linked to Protein A through IgG moiety) immunoaffinity precolumn and a 1.0 ml REK7-IgG—Protein A (REK7-IgG covalently linked to Protein A through IgG moiety) immunoaffinity column in tandem with a flow rate of 0.5 ml/min. All chromatography was carried out at 4° C. […] The eluates were brought to pH 7.4 by the addition of 50 mM potassium phosphate, and an aliquot of each was analyzed by sodium dodecycl sulfate (SDS)—polyacrylamide gel electrophoresis (PAGE). […]

binding result: no binding
B1: AL-1 (REK7 ligand) purified from BT20 cell conditioned medium (ligand)
chain: QDPGSKAVADRYAVYWNSSNPRFQRGDYHIDVCINDYLDVFCPHYEDSVPEDKTERYVLYMVNFDGYSACDHTSKGFKRWECNRPHSPNGPLKFSEKFQLFTPFSLGFEFRPGREYFYISSAIPDNGRRSCLKLKVFVRPTNSCMKTIGVHDRVFDVNDKVENSLEPADDTVHESAEPSRGEN
notes: Soluble forms in serum-free conditioned medium of human BT20 cells; The 27,000 and 25,000 Dalton proteins appeared to be proteolytically processed forms of the 28,000 Dalton protein; also called 28,000, 27,000 and 25,000 Dalton proteins; BT20 cell-derived AL-1
